No end group written: not given here.
Legend:
pancreatic cancer = test: Example 3: treatment of pancreatic cancer with dually elevated CD36 and CD47; type: in vivo; conditions: expected
Experimental: Subjects having pancreatic cancer are identified using standard clinical protocols. Samples are obtained and levels of CD36 and CD47 measured using methods known in the art. Subjects presenting with dually elevated CD36 and CD47 levels as compared to suitable controls are selected for dosing with VT1021. Subjects advancing to the treatment phase are administered VT1021. Frequency and dosage are determined in accordance with the stage and severity of disease accordingly to methods standard in the art. Tumor burden and other disease indicators are measured and data compiled using methods known in the art.

[1] = tested on: subjects with pancreatic cancer; test: Phase I/II clinical study (NCT03364400): adverse events in subjects with pancreatic cancer; type: in vivo, human
Experimental: VT1021 was evaluated in a recently completed phase I/II open-label, multicenter, dose escalation (Part 1) and expansion (Part 2) clinical study in advanced, refractory, solid tumors including pancreatic cancer (NCT03364400). Seven subjects with pancreatic cancer were dosed in Part 1 and 32 were dosed in Part 2, 17 of which were considered evaluable as having completed ≥1 cycle of VT1021 treatment and tumor imaging during cycle 2. […] In the “expansion stage” of the VT1021-01 Study, subjects diagnosed with recurrent GBM, pancreatic cancer, ovarian cancer and other solid tumors were enrolled. They were treated with VT1021 at 11.8 mg/kg, twice weekly by IV infusion. The blood samples were collected from the clinical study at pre-treatment, 0, 2, 4, 6 hours post treatment to measure the levels of VT1021 (FIG. 2). The tumor biopsy samples prior to treatment and during treatment were collected from the clinical study to measure expression levels of biomarkers including CD36 and CD47, as well as cell surface markers for immune cell populations in the TME by immunohistochemistry assays (FIG. 3, FIG. 4, FIG. 5). The correlation between days on study and tumor shrinkage versus expression profile of CD36 and CD47 was analyzed (FIG. 4). The general expression profile of CD36 and CD47 has been assessed by IHC on Tumor Tissue Microarrays (TMAs), which contain biopsy samples collected from pancreatic cancer patients. TMAs were purchased from commercial sources, not related to the VT1021-01 clinical study. Common adverse effects (AEs) in escalation subjects with pancreatic cancer (Part 1) are shown in Table 1 The AEs shown occurred in 2 or more subjects, all cycles, maximum grade, regardless of toxicity). Of 39 pancreatic cancer subjects enrolled and dosed, 7 subjects were enrolled in the Part 1 escalation cohort. All 7 subjects reported at least one AE (regardless of causality). Four subjects had at least one AE, which was probably or possibly related to the study drug. […] Five subjects reported at least one severe adverse event (SAE) (regardless of causality). Two subjects had SAEs definitely or possibly related to study drug: infusion related reaction (grade 3), altered mental status (grade 2). Thirty-two subjects were enrolled in the Part 2 […] cohort. Thirty subjects reported at least one AE (regardless of causality). Eighteen subjects had at least one AE definitely, probably or possibly related to the study drug. Twenty subjects reported at least one SAE (regardless of causality). Two subjects had SAEs possibly related to study drug: thrombosis (grade 3), fever (grade 1)

[2] = Part 1 escalation cohort, 7 pancreatic cancer subjects
[3] = Part 1 escalation, pancreatic cancer, all cycles, maximum grade
[4] = Part 2 cohort, 32 pancreatic cancer subjects
[5] = Part 2 expansion, pancreatic cancer, all cycles, maximum grade

cyclic DWLPK (also: cyclic, mode of cyclisation not given here) [VT1021, 5-amino acid cyclic peptide from prosaposin; Tsp-1-inducing agent]
Four: subjects with at least one AE probably or possibly related to the study drug [1, 2]
9 subjects: Abdominal pain (AE), Grade 2 [1, 5]
Thirty: subjects reporting at least one AE (regardless of causality) [1, 4]
2 subjects: Urinary tract infection (AE), Grade 2 [1] | Constipation (AE), Total [1, 3] | Fatigue (AE), Grade 1 [1, 3] | Fatigue (AE), Total [1, 3] | Infusion related reaction (AE), Total [1, 3] | Nausea (AE), Grade 1 [1, 3] | Nausea (AE), Total [1, 3] | Thrombosis (AE), Grade 3 [1, 3] | Thrombosis (AE), Total [1, 3] | Alanine aminotransferase increased (AE), Grade 3 [1, 5] | Anaemia (AE), Grade 2 [1, 5] | Aspartate aminotransferase increased (AE), Grade 1 [1, 5] | Aspartate aminotransferase increased (AE), Grade 2 [1, 5] | Aspartate aminotransferase increased (AE), Grade 3 [1, 5] | Decreased appetite (AE), Grade 2 [1, 5] | Decreased appetite (AE), Grade 3 [1, 5] | Urinary tract infection (AE), Total ([1]; human, in vivo)
8 subjects: Constipation (AE), Total [1, 5] | Diarrhoea (AE), Total [1, 5] | Fatigue (AE), Grade 2 [1, 5]
reduction in tumor burden: tumor burden compared to control subjects (pancreatic cancer)
no dose-limiting toxicity: dose-limiting toxicity [1, 2]
Eighteen: subjects with at least one AE definitely, probably or possibly related to the study drug [1, 4]
6 subjects: Alanine aminotransferase increased (AE), Total [1, 5] | Aspartate aminotransferase increased (AE), Total [1, 5] | Insomnia (AE), Grade 1 [1, 5] | Insomnia (AE), Total [1, 5] | Pyrexia (AE), Grade 1 [1, 5] | Pyrexia (AE), Total [1, 5]
5 subjects: Diarrhoea (AE), Grade 1 [1, 5]
4 subjects: Abdominal pain (AE), Total [1, 3] | Abdominal pain (AE), Grade 3 [1, 5] | Alanine aminotransferase increased (AE), Grade 1 [1, 5] | Anaemia (AE), Grade 1 [1, 5] | Blood bilirubin increased (AE), Grade 3 [1, 5] | Constipation (AE), Grade 1 [1, 5] | Constipation (AE), Grade 2 [1, 5]
3 subjects: Abdominal pain (AE), Grade 1 [1, 3] | Abdominal pain (AE), Grade 1 [1, 5] | Blood bilirubin increased (AE), Grade 2 [1, 5] | Diarrhoea (AE), Grade 2 [1, 5] | Fatigue (AE), Grade 1 [1, 5] | Fatigue (AE), Grade 3 [1, 5] | Nausea (AE), Grade 2 [1, 5]
10 subjects: Nausea (AE), Grade 1 [1, 5]
no major adverse events: major adverse events (AEs) ([1]; phase I/II study, solid tumors including pancreatic cancer)
16 subjects: Abdominal pain (AE), Total [1, 5]
Five: subjects reporting at least one severe adverse event (SAE) (regardless of causality) [1, 2]
14 subjects: Fatigue (AE), Total [1, 5] | Nausea (AE), Total [1, 5]
Two: subjects with SAEs definitely or possibly related to study drug ([1]; Part 1, 7 pancreatic cancer subjects, infusion related reaction (grade 3), altered mental status (grade 2)) | subjects with SAEs possibly related to study drug ([1]; Part 2, 32 pancreatic cancer subjects, thrombosis (grade 3), fever (grade 1))
7 subjects: subjects reporting at least one AE (regardless of causality) [1, 2] | Anaemia (AE), Total [1, 5] | Blood bilirubin increased (AE), Total [1, 5] | Decreased appetite (AE), Grade 1 [1, 5]
Twenty: subjects reporting at least one SAE (regardless of causality) [1, 4]
11 subjects: Decreased appetite (AE), Total [1, 5]
1 subjects: Abdominal pain (AE), Grade 3 [1, 3] | Constipation (AE), Grade 1 [1, 3] | Constipation (AE), Grade 3 [1, 3] | Infusion related reaction (AE), Grade 2 [1, 3] | Infusion related reaction (AE), Grade 3 [1, 3] | Anaemia (AE), Grade 3 [1, 5] | Nausea (AE), Grade 3 [1, 5]
